Measured values: patent US20240025965A1 (UNIVERSITEIT TWENTE, published 2024)
Primed or numbered codes have the meaning given here. Where no end group is shown, it is not given here. Side-chain parts run from the residue outwards. PEG(6) = PEG(6) linker

Tests used:
rhIntegrin α11β1 [1] = target: T1, rhIntegrin α11β1 (human, UniProt Q9UKX5 23-1141; P05556 21-728, limits assumed); experiment: competition: unlabeled AXI-I in 10-fold excess against AXI-I-FITC on coated α11β1 receptor, fluorescence intensity
T1 construct: Bought from R&D Systems; also called α11β1 receptor; ITGA11 receptor
Procedure: (§1) Purified ITGA11 receptor (α11β1; 100 μg/ml—stock; R&D systems) was diluted to 5 μg/ml with 1×PBS. 96-well ELISA White Maxisorb plate (Nunc) was coated with 50 μl of 5 μg/ml ITGA11 (or as control α5β1) receptor for overnight at 4° C. Then, wells were blocked for 3-4 hours with 200 μl of blocking buffer (1×PBS containing 5% BSA). Wells were washed three times with 200 μl of washing buffer (1×PBS containing 0.5% BSA and 0.05% TWEEN®-20). Peptides conjugated with FITC were diluted to different concentrations in washing buffer and then added to the plate and incubated at 37° C. for 1 hour. In addition, the binding of the peptide was blocked by co-incubation with 10× higher amount of unlabeled peptide. Subsequently, wells were washed three times with washing buffer. Then, 100 μl of 1×PBS was added and plates were read at 485 nm/520 nm with a fluorescence plate reader.

[2] = target: T2, human recombinant receptor αvβ3 (human, UniProt P06756 31-992; P05106 27-718, limits assumed); experiment: microscale thermophoresis, 1 µM labelled peptide, receptor titrated, in solution
T2 construct: also called irrelevant receptor of the integrin family
Procedure: (§2) Fluorescent labeled peptide (AV3-PEG(6)-5FAM or AXI-I-PEG(6)-FITC) (1 μM) was incubated with different concentrations of a human recombinant receptor (i.e., α5β1, α11β1 or αvβ3) for 10 minutes in Eppendorf tubes. The mixture of peptide and receptor was loaded in to NT.115™ hydrophilic glass capillaries. In order to find the best thermophoretic setting, the binding of peptide to the target receptor was examined at low (20%), middle (40%), and high (80%) MST power and all other binding experiments were performed using the same MST-settings. Finally, the dissociation constant (Kd) value was calculated from an average of three experiments.
(§3) Fluorescent labeled peptides (AV3-PEG(6)-5FAM and AXI-I-PEG(6)-FITC) were examined for their binding affinities against α5β1 and α11β1 receptors, respectively using microscale thermophoresis (MST). MST allows peptides to interact with the receptors in solution phase. These peptides were also exposed to an irrelevant receptor of the integrin family αvβ3 and MST analyses were performed.

[3] = target: T3, α5β1 human recombinant protein (human, UniProt P08648 42-995; P05556 21-728); experiment: as above
T3 construct: Bought from R&D Systems; also called α5β1 receptor; integrin α5β1
Procedure: as §2, §3

[4] = target: T3, α5β1 human recombinant protein; experiment: microscale thermophoresis, 1 µM labelled peptide with rising concentrations of the receptor in solution
Procedure: as §2, §3

[5] = target: T4, ITGA11 on human stellate cells (LX2 hepatic stellate cells; primary pancreatic stellate cells) (human, UniProt Q9UKX5 23-1188); experiment: flow cytometry of AXI-I-PEG-FITC on suspended primary human pancreatic stellate cells, 1 hour at 4 °C
T4 construct: whole, on cells; For the pancreatic stellate cells the target is only implied; also called ITGA11-expressing hepatic stellate cells; ITGA11 expressing LX2 cells
T4 sequence (looked up): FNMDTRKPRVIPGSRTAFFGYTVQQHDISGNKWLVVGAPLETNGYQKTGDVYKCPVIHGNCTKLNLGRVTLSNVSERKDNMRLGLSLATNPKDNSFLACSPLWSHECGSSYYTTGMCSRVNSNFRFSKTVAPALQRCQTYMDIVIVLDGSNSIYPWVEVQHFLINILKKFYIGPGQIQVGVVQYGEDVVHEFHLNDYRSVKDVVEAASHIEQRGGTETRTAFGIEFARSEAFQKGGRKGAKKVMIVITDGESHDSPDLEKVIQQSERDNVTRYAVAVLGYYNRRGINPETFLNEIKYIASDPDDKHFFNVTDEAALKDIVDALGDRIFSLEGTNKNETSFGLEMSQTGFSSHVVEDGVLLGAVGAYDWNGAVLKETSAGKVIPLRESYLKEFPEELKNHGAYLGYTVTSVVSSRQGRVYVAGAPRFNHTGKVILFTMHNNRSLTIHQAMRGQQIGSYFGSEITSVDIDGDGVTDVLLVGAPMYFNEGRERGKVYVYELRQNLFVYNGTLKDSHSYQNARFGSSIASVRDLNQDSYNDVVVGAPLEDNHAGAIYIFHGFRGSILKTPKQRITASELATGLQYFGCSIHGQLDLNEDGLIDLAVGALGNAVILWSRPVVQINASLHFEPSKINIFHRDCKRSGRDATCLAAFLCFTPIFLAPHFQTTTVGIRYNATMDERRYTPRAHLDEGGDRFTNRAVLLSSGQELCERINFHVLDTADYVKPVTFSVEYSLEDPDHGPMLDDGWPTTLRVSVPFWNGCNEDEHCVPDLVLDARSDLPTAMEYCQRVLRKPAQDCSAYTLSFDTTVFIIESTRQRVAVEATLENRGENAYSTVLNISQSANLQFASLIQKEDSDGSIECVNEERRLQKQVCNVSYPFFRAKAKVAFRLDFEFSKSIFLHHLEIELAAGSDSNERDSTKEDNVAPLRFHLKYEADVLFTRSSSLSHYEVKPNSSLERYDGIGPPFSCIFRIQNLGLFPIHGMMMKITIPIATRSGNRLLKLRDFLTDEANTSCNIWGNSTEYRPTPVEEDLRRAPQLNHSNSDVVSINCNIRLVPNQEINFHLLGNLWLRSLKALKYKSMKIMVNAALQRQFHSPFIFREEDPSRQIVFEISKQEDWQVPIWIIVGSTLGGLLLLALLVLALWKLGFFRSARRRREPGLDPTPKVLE
Procedure: (§4) PSCs were trypsinized using trypsin-EDTA solution and cell numbers were diluted to 4×10⁴ cells/ml. Cells were incubated at 37° C. for 30 minutes to allow receptor recovery. Then different concentrations of AXI-I-FITC was added to the cells containing 2% FBS and incubated at 4° C. for 60 minutes. Thereafter, cells were centrifuged at 1500 rpm at 4° C. for 10 minutes. Supernatant was removed and cells were washed 3 times with PBS and then were fixed with 0.5% formaldehyde for 1 hour at 4° C. and measured with flow cytometry for fluorescence.
(§5) Different concentrations of AXI-I-PEG-FITC was incubated with suspended PSCs for 1 hour at 4° C., washed and fixed with 0.5% formaldehyde and measured with flow cytometry. […] The 50% of the total binding, i.e., dissociation constant (kd) value was approximately 1 uM. Since the peptide has been modified with PEG chain and a fluorophore, the binding affinity of the peptide may be reduced due to steric hindrance.

rhIntegrin α11β1 [6] = target: T1, rhIntegrin α11β1; experiment: microscale thermophoresis, 1 µM labelled peptide, receptor titrated, in solution
Procedure: as §2, §3

[7] = target: T4, ITGA11 on human stellate cells (LX2 …); experiment: flow cytometry on suspended primary human pancreatic stellate cells, 1 hour at 4° C.; whole-cell binding on suspended primary human pancreatic stellate cells, 1 hour at 4° C., flow cytometry; PEG- and FITC-modified peptide
Procedure: as §4, §5

[8] = target: T2, human recombinant receptor αvβ3; experiment: microscale thermophoresis, 1 µM labelled peptide
Procedure: as §2, §3

[9] = target: T3, α5β1 human recombinant protein; experiment: FITC-labelled peptide on coated α5β1 receptor in a 96-well plate, fluorescence intensity
Procedure: as §1

[10] = target: T3, α5β1 human recombinant protein; experiment: FITC-labelled peptide on coated α5β1 receptor in a 96-well plate, fluorescence intensity (counts)
Procedure: (§6) The purified human recombinant α5β1 or α11β1 receptors (5 μg/ml in PBS) were coated onto 96-well ELISA plates (White Maxisorb-Nunc) by incubating overnight at 4° C. Then, the wells were blocked with blocking buffer (5% (w/v) BSA, 150 mM Nacl, 25 mM Tris) for 2 hours at room temperature. Then, the wells were washed three times with 200 μl of washing buffer (150 mM Nacl, 25 mM Tris-base, 0.005% TWEEN® 20, 0.5% BSA). Thereafter, the peptides conjugated with PEG(6)-FITC were diluted to different concentrations in washing buffer. For the competitive studies, the wells were co-incubated with 10-fold higher amount of unlabeled peptides. The plates were incubated at 37° C. for 60 minutes. Then, the wells were washed three times with washing buffer and subsequently, the plates were read for the fluorescein signal Ex/Em 485 nm/520 nm using a fluorescent plate reader (Perkin Elmer).
(§7) Blocking of the peptide with 10-fold excess of unlabeled peptide blocked the binding of nAV2-PEG(6)-fluorescein. In addition, a new short peptide (RYYRITY (SEQ ID NO:8), called AV3) was also designed because seq. 3 and seq. 4 (see the sequences above) had “YYRITY” (SEQ ID NO:10) as common amino acids and the N-terminal of the seq. 4 was crucial for the binding to the receptor. […] Therefore, AV3 was selected to move with further studies.

rhIntegrin α11β1 [11] = target: T1, rhIntegrin α11β1; experiment: phage ELISA on coated rhIntegrin α11β1, HRP-anti-M13 antibody, read at 490 nm; control coatings rhIntegrin α4β1 (Bar 2) and no coating (Bar 3); one phage dose, no concentration given
Procedure: For each clone, 20 mL of LB medium was inoculated with ER2738 and incubated at 37° C. until slightly turbid. Single plaque of phages were inoculated to each culture and then incubated at 37° C. with vigorous aeration for 4.5 hours. The cultures were transferred to a fresh centrifuge tube and centrifuged for 10 minutes at 10,000 rpm. The upper 80% of the supernatant was transferred to a fresh tube and precipitated with PEG/NaCl twice. Then the pellet was suspended in 250 μL TBS. The 96-well ELISA plate was coated with 100 μL of 1 μg/mL target in coating buffer and incubated at 4° C. overnight. Then, the plate was washed once with the washing buffer (0.1% TWEEN® in TBS). All wells were blocked with 250 μL of blocking buffer at 4° C. for 1-2 hours. Then, the plate was washed 6 times with the washing buffer and slapping on a paper towel to remove excess buffer. Thereafter, 100 μL of phage virions was added per well. In competitive phage ELISA, competitive antigen was mixed with phages in washing buffer and added to the wells and incubated at room temperature for 1-2 hours with agitation. The plate was washed 6 times with washing buffer. HRP-conjugated anti-M13 antibody (GE healthcare, 1:5000 in blocking buffer) was added to each well and incubated at room temperature for 1 hour with agitation. […] The plates were read using a microplate reader at 490 nm.

[12] = target: T3, α5β1 human recombinant protein; experiment: competition: unlabelled AV3 in excess against nAV2-FITC on coated α5β1 receptor, fluorescence intensity (counts)
Procedure: as §6, §7

T3 sequence (P08648 42-995 limits assumed, chain 1 of 2): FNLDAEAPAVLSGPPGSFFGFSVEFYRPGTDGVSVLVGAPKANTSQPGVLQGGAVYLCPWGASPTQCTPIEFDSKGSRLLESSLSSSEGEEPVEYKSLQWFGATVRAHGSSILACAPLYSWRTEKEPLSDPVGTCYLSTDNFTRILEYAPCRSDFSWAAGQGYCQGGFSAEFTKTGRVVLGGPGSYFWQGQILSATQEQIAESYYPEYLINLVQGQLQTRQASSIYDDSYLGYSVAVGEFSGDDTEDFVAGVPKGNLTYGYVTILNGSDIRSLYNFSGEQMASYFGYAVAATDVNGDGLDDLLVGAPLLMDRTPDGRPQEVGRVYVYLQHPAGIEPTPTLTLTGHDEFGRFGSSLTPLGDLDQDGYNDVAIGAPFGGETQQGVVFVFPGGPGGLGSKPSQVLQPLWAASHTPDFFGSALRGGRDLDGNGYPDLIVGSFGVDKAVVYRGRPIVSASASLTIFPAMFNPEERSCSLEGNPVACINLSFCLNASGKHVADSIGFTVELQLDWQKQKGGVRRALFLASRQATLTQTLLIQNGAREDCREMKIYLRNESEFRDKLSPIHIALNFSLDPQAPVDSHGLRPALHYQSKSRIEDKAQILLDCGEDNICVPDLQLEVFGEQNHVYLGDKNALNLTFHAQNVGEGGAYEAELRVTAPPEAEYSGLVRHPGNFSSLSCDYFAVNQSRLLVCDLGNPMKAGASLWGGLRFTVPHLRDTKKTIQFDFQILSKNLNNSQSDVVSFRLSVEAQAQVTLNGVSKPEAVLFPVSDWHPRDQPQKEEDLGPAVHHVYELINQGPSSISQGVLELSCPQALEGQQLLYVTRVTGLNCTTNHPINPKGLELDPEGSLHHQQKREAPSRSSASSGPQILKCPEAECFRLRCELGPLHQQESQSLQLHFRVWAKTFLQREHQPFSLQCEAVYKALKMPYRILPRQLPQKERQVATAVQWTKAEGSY
T3 sequence (P05556 21-728 limits assumed, chain 2 of 2): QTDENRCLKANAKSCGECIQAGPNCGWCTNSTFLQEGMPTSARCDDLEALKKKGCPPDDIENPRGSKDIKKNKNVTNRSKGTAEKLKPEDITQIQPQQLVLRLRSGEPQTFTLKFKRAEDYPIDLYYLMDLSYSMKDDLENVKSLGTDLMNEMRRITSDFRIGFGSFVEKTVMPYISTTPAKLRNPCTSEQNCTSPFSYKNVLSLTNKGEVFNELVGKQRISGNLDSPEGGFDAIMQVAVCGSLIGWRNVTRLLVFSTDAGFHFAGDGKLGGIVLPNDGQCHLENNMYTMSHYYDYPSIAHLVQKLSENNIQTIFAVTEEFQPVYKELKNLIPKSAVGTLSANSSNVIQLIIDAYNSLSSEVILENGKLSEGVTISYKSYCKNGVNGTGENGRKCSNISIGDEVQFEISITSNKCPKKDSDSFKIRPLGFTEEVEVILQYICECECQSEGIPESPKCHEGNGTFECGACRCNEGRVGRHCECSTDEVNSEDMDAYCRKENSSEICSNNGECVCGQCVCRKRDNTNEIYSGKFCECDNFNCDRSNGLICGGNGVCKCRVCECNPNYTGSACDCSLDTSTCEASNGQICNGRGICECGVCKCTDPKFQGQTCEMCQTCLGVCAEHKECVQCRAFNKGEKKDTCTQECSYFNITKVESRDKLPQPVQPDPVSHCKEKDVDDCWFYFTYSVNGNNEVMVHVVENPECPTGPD
T2 sequence (P06756 31-992 limits assumed, chain 1 of 2): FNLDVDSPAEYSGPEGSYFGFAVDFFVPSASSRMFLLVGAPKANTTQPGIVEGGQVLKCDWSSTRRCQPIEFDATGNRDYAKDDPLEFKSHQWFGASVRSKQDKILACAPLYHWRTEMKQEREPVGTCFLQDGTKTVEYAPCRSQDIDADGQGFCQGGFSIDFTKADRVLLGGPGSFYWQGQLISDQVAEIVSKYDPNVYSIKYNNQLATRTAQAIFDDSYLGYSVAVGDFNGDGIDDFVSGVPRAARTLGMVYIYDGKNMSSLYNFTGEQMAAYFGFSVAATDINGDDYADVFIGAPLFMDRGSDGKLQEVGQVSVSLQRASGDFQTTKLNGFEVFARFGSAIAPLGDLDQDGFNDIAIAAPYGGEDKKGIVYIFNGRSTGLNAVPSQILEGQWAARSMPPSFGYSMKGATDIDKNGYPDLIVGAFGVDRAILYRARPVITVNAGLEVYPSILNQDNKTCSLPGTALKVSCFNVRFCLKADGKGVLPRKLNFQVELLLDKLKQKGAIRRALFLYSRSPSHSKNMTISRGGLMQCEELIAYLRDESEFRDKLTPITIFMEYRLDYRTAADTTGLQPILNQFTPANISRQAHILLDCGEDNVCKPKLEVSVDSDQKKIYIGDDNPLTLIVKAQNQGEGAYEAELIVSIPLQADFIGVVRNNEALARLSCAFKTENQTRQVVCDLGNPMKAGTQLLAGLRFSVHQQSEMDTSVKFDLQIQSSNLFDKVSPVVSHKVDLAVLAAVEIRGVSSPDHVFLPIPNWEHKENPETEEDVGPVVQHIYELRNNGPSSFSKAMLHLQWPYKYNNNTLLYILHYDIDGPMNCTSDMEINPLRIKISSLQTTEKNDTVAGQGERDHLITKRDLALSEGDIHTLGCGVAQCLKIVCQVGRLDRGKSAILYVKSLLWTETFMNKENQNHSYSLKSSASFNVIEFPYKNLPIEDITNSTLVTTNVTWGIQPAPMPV
T2 sequence (P05106 27-718 limits assumed, chain 2 of 2): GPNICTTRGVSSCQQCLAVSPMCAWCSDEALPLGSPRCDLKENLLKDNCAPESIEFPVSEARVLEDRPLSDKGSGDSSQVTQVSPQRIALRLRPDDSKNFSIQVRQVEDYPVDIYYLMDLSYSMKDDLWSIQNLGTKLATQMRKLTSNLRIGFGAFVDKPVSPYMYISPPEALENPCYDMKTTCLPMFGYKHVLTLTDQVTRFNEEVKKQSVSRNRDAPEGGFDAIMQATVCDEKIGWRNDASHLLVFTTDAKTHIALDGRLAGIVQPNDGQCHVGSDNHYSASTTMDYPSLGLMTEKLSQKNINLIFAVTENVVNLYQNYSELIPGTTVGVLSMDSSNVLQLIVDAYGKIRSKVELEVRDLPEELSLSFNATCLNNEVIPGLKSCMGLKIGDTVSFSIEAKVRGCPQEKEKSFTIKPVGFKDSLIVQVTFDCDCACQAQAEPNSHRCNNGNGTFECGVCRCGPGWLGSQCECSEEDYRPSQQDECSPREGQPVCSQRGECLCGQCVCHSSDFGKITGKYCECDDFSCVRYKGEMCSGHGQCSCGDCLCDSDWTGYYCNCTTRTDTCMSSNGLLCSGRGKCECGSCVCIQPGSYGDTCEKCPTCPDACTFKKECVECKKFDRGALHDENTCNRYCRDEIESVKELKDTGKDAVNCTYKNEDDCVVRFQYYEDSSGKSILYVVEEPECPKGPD

B1: AXI-I peptide SGLTEWLRWFNS (peptide)
peptide: SGLTEWLRWFNS
notes: Unlabelled peptide; On the peptide microarray it is linked by its N-terminus to a glass slide through a PEG linker; also called unlabeled AXI-I
rhIntegrin α11β1 [1]
  binding result: binds

B2: AV3-PEG(6)-5FAM (peptide)
peptide: RYYRITY
modifications: also: PEG(6)-5FAM conjugated, site not given here
notes: also called AV3 peptide (fluorescent labeled)
[2]
  Kd: 36.1 µM
[3]
  Kd: 97.8 nM
[4]
  EC50 (read off the curve): ~100 nM

## SGLTEWLRWFNS (also: PEG(6)-FITC conjugated, site not given here, also called AXI-I-PEG-FITC; AXI-I-FITC) [AXI-I-PEG(6)-FITC]
[5]
  EC50 (read off the curve): ~1000 nM
rhIntegrin α11β1 [6]
  Kd: 149 nM
[7]
  Kd: ~1000 nM
[8]
  binding result: no binding
[9]
  binding result: no binding (tested: 1.0 µM)

B3: FITC-labeled nAV2: YYRITYGETGGN-K-PEG(6)-Fluorescein (peptide)
peptide: YYRITYGETGGNK([PEG(6)-fluorescein])
notes: also called nAV2-FITC; nAV2-PEG(6)-fluorescein
[10]
  binding result: binds

B4: Phage clones 11, 13, 14, 16, 19, 20, 21, 22, 24, 25, 28, 29, 30, 31 and 38 displaying AXI-I (peptide)
chain: SGLTEWLRWFNS
notes: Whole phage virions in the phage ELISA; not shown: phage coat protein of the Ph.D.12 library
rhIntegrin α11β1 [11]
  binding result: binds

B5: AV3 peptide RYYRITY (peptide)
peptide: RYYRITY
notes: Unlabelled; On the peptide microarray it is linked by its N-terminus to a glass slide through a PEG linker
[12]
  binding result: binds

B6: Phage clone 27 displaying AXI-II (peptide)
chain: SFATWTPNFERN
notes: as for B4
rhIntegrin α11β1 [11]
  binding result: binds
